{"source": "patent US20200262889A1", "about": "(B G NEGEV TECHNOLOGIES AND APPLICATIONS LTD AT BEN GURION …, published 2020)", "binders": {"B1": {"name": "IRBIT (IP3 receptor-binding protein released with IP3; S-adenosylhomocysteine hydrolase-like protein) (other)", "chain": "SMPDAMPLPGVGEELKQAKEIEDAEKYSFMATVTKAPKKQIQFADDMQEFTKFPTKTGRRSLSRSISQSSTDSYSSAASYTDSSDDEVSPREKQQTNSKGSSNFCVKNIKQAEFGRREIEIAEQDMSALISLRKRAQGEKPLAGAKIVGCTHITAQTAVLIETLCALGAQCRWSACNIYSTQNEVAAALAEAGVAVFAWKGESEDDFWWCIDRCVNMDGWQANMILDDGGDLTHWVYKKYPNVFKKIRGIVEESVTGVHRLYQLSKAGKLCVPAMNVNDSVTKQKFDNLYCCRESILDGLKRTTDVMFGGKQVVVCGYGEVGKGCCAALKALGAIVYITEIDPICALQACMDGFRVVKLNEVIRQVDVVITCTGNKNVVTREHLDRMKNSCIVCNMGHSNTEIDVTSLRTPELTWERVRSQVDHVIWPDGKRVVLLAEGRLLNLSCSTVPTFVLSITATTQALALIELYNAPEGRYKQDVYLLPKKMDEYVASLHLPSFDAHLTELTDDQAKYLGLNKNGPFKPNYYRY", "notes": "The methods say only 'IRBIT in pcDNA3.1(+)'"}}, "molecular_target": "T1, mouse OAT-3 (oat3, slc22a8) (mouse, UniProt O88909 1-537)", "T1 construct": "whole, on cells; Expressed in HEK293T cells; coIP from lysates; not shown: myc-DDK tag of the pCMV6-Entry myc-DDK vector", "T1 sequence (looked up)": "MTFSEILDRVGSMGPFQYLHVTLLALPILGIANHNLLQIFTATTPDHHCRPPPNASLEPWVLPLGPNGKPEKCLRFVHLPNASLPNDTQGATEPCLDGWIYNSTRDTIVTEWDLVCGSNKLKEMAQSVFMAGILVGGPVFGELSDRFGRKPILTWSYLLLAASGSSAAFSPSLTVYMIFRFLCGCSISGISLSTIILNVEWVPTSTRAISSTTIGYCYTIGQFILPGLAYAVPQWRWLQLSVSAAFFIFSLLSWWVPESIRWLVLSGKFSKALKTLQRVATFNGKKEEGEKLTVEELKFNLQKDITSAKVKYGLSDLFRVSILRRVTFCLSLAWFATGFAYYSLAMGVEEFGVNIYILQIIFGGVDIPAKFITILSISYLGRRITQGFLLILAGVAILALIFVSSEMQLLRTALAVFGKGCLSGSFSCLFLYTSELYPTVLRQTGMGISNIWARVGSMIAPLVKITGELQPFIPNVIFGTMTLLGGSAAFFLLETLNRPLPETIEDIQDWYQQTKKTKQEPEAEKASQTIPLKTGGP", "experiment": "coIP from HEK293T cells co-transfected with OAT-3 and IRBIT", "text": "To determine whether IRBIT regulates succinate efflux via interaction with OATs, the interaction of OAT-1 and/or OAT-3 with IRBIT was monitored by coIP. […] Succinate uptake was elevated by expression of OAT-1 alone, that was abolished by the OAT inhibitor probenecid (FIG. 6B-C). Neither IRBIT, SUCNR1 stimulation, nor inhibition of PLC by U73122 affected the OAT-mediated succinate uptake. These findings indicate that OAT-1 activity is IRBIT-independent."}
{"binder": "B1", "values": [{"measurement": "binding result", "value": "no binding"}]}
